Literature values, collected in paper PMC3076733.

Molecular target: Obscurin Rho-GEF (Homo sapiens) (UniProt Q5VST9)
Chain of UniProt Q5VST9 (Q5VST9 5700-5884): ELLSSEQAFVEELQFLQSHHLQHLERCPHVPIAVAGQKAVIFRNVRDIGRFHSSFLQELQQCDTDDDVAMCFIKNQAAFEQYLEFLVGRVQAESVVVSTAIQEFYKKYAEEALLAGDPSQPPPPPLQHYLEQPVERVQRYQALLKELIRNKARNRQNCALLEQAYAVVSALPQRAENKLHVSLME

RanBP9 (from UniProt Q96S59)
Kd: 2000 nM
